According to the supplement of paper PMC5998384:

Assays:
HeLa Kyoto [1] = assay: melting temperature (median over replicates), in situ; higher = more thermally stable
HeLa Kyoto [2] = assay: thermal stability score vs G1/S (z-score of summed log2 fold changes over temperatures); higher = more thermally stable than in G1/S
HeLa Kyoto [3] = assay: solubility in G1/S (NP-40 vs SDS abundance) (log2 ratio); higher = more soluble; details: cell cycle stage: G1/S
HeLa Kyoto [4] = assay: solubility change mitosis vs G1/S (difference of NP-40 vs SDS log2 ratios) (log2 ratio difference); higher = more soluble in mitosis
[5] = cell cycle stage: early G1 (4.5 h after nocodazole release)
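For melting temperature (median over replicates), in situ in this document: HeLa Kyoto cells synchronized by double thymidine or nocodazole block, proteins quantified by TMT10plex mass spectrometry, three independent biological replicates.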
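For solubility change mitosis vs G1/S (difference of NP-40 vs SDS log2 ratios) in this document: synchronized HeLa Kyoto cells (double thymidine block for G1/S, nocodazole release for mitosis), protein amounts in NP-40 versus SDS lysates quantified by mass spectrometry, three biological replicates.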
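For solubility in G1/S (NP-40 vs SDS abundance) in this document: HeLa Kyoto cells arrested at G1/S by double thymidine block, proteins quantified by TMT10plex mass spectrometry in mild NP-40 versus SDS extracts, three biological replicates.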
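For thermal stability score vs G1/S (z-score of summed log2 fold changes over temperatures) in this document: synchronized HeLa Kyoto cells, proteins quantified by TMT10plex mass spectrometry, three biological replicates, mitosis taken 0.5 h after nocodazole release, G1/S directly after double thymidine block.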

Sequence	melting temperature (HeLa Kyoto [1]; cell cycle stage: G1/S) [°C]	melting temperature (HeLa Kyoto [1]; cell cycle stage: mitosis) [°C]	thermal stability score (HeLa Kyoto [2]; [5])	thermal stability score (HeLa Kyoto [2]; cell cycle stage: mitosis)	solubility in G1/S (log2) (HeLa Kyoto [3])	solubility change mitosis (log2) (HeLa Kyoto [4])
MAAASAVSVLLVAAERNRWHRLPSLLLPPRTWVWRQRTMKYTTATGRNITKVLIANRGEIACRVMRTAKKLGVQTVAVYSEADRNSMHVDMADEAYSIGPAPSQQSYLSMEKIIQVAKTSAAQAIHPGCGFLSENMEFAELCKQEGIIFIGPPPSAIRDMGIKSTSKSIMAAAGVPVVEGYHGEDQSDQCLKEHARRIGYPVMIKAVRGGGGKGMRIVRSEQEFQEQLESARREAKKSFNDDAMLIEKFVDTPRHVEVQVFGDHHGNAVYLFERDCSVQRRHQKIIEEAPAPGIKSEVRKKLGEAAVRAAKAVNYVGAGTVEFIMDSKHNFCFMEMNTRLQVEHPVTEMITGTDLVEWQLRIAAGEKIPLSQEEITLQGHAFEARIYAEDPSNNFMPVAGPLVHLSTPRADPSTRIETGVRQGDEVSVHYDPMIAKLVVWAADRQAALTKLRYSLRQYNIVGLHTNIDFLLNLSGHPEFEAGNVHTDFIPQHHKQLLLSRKAAAKESLCQAALGLILKEKAMTDTFTLQAHDQFSPFSSSSGRRLNISYTRNMTLKDGKNNVAIAVTYNHDGSYSMQIEDKTFQVLGNLYSEGDCTYLKCSVNGVASKAKLIILENTIYLFSKEGSIEIDIPVPKYLSSVSSQETQGGPLAPMTGTIEKVFVKAGDKVKAGDSLMVMIAMKMEHTIKSPKDGTVKKVFYREGAQANRHTPLVEFEEEESDKRESE [MCCC1]	51.4	51.3	-0.414	-0.17	-0.0598	-0.125
MAAASGSVLQRCIVSPAGRHSASLIFLHGSGDSGQGLRMWIKQVLNQDLTFQHIKIIYPTAPPRSYTPMKGGISNVWFDRFKITNDCPEHLESIDVMCQVLTDLIDEEVKSGIKKNRILIGGFSMGGCMAIHLAYRNHQDVAGVFALSSFLNKASAVYQALQKSNGVLPELFQCHGTADELVLHSWAEETNSMLKSLGVTTKFHSFPNVYHELSKTELDILKLWILTKLPGEMEKQK [LYPLAL1]	52	52.3	1.32	0.974	0.361	-0.0182
MAAASPLRDCQAWKDARLPLSTTSNEACKLFDATLTQYVKWTNDKSLGGIEGCLSKLKAADPTFVMGHAMATGLVLIGTGSSVKLDKELDLAVKTMVEISRTQPLTRREQLHVSAVETFANGNFPKACELWEQILQDHPTDMLALKFSHDAYFYLGYQEQMRDSVARIYPFWTPDIPLSSYVKGIYSFGLMETNFYDQAEKLAKEALSINPTDAWSVHTVAHIHEMKAEIKDGLEFMQHSETFWKDSDMLACHNYWHWALYLIEKGEYEAALTIYDTHILPSLQANDAMLDVVDSCSMLYRLQMEGVSVGQRWQDVLPVARKHSRDHILLFNDAHFLMASLGAHDPQTTQELLTTLRDASESPGENCQHLLARDVGLPLCQALVEAEDGNPDRVLELLLPIRYRIVQLGGSNAQRDVFNQLLIHAALNCTSSVHKNVARSLLMERDALKPNSPLTERLIRKAATVHLMQ [TTC38]	53.1	53.1	-0.435	-0.408	0.319	-0.0718
MAADISESSGADCKGDPRNSAKLDADYPLRVLYCGVCSLPTEYCEYMPDVAKCRQWLEKNFPNEFAKLTVENSPKQEAGISEGQGTAGEEEEKKKQKRGGRGQIKQKKKTVPQKVTIAKIPRAKKKYVTRVCGLATFEIDLKEAQRFFAQKFSCGASVTGEDEIIIQGDFTDDIIDVIQEKWPEVDDDSIEDLGEVKK [DENR]	56.9	58.6	0.263	0.467	0.481	0.142
MAAEAADLGLGAAVPVELRRERRMVCVEYPGVVRDVAKMLPTLGGEEGVSRIYADPTKRLELYFRPKDPYCHPVCANRFSTSSLLLRIRKRTRRQKGVLGTEAHSEVTFDMEILGIISTIYKFQGMSDFQYLAVHTEAGGKHTSMYDKVLMLRPEKEAFFHQELPLYIPPPIFSRLDAPVDYFYRPETQHREGYNNPPISGENLIGLSRARRPHNAIFVNFEDEEVPKQPLEAAAQTWRRVCTNPVDRKVEEELRKLFDIRPIWSRNAVKANISVHPDKLKVLLPFIAYYMITGPWRSLWIRFGYDPRKNPDAKIYQVLDFRIRCGMKHGYAPSDLPVKAKRSTYNYSLPITVKKTSSQLVTMHDLKQGLGPSGTSGARKPASSKYKLKDSVYIFREGALPPYRQMFYQLCDLNVEELQKIIHRNDGAENSCTERDGWCLPKTSDELRDTMSLMIRQTIRSKRPALFSSSAKADGGKEQLTYESGEDEEDEEEEEEEEEDFKPSDGSENEMETEILDYV [GTF3C5]	47.8	49.4	2.34	4.79	-0.0747	-0.0211
MAAEGWIWRWGWGRRCLGRPGLLGPGPGPTTPLFLLLLLGSVTADITDGNSEHLKREHSLIKPYQGVGSSSMPLWDFQGSTMLTSQYVRLTPDERSKEGSIWNHQPCFLKDWEMHVHFKVHGTGKKNLHGDGIALWYTRDRLVPGPVFGSKDNFHGLAIFLDTYPNDETTERVFPYISVMVNNGSLSYDHSKDGRWTELAGCTADFRNRDHDTFLAVRYSRGRLTVMTDLEDKNEWKNCIDITGVRLPTGYYFGASAGTGDLSDNHDIISMKLFQLMVEHTPDEESIDWTKIEPSVNFLKSPKDNVDDPTGNFRSGPLTGWRVFLLLLCALLGIVVCAVVGAVVFQKRQERNKRFY [LMAN2]	54.1	53.8	2.85	5.52	0.163	-0.0609
MAAEREPPPLGDGKPTDFEDLEDGEDLFTSTVSTLESSPSSPEPASLPAEDISANSNGPKPTEVVLDDDREDLFAEATEEVSLDSPEREPILSSEPSPAVTPVTPTTLIAPRIESKSMSAPVIFDRSREEIEEEANGDIFDIEIGVSDPEKVGDGMNAYMAYRVTTKTSLSMFSKSEFSVKRRFSDFLGLHSKLASKYLHVGYIVPPAPEKSIVGMTKVKVGKEDSSSTEFVEKRRAALERYLQRTVKHPTLLQDPDLRQFLESSELPRAVNTQALSGAGILRMVNKAADAVNKMTIKMNESDAWFEEKQQQFENLDQQLRKLHVSVEALVCHRKELSANTAAFAKSAAMLGNSEDHTALSRALSQLAEVEEKIDQLHQEQAFADFYMFSELLSDYIRLIAAVKGVFDHRMKCWQKWEDAQITLLKKREAEAKMMVANKPDKIQQAKNEIREWEAKVQQGERDFEQISKTIRKEVGRFEKERVKDFKTVIIKYLESLVQTQQQLIKYWEAFLPEAKAIA [SNX2]	51.4	51.2	0.424	-0.352	0.143	-0.226
MAAEWASRFWLWATLLIPAAAVYEDQVGKFDWRQQYVGKVKFASLEFSPGSKKLVVATEKNVIAALNSRTGEILWRHVDKGTAEGAVDAMLLHGQDVITVSNGGRIMRSWETNIGGLNWEITLDSGSFQALGLVGLQESVRYIAVLKKTTLALHHLSSGHLKWVEHLPESDSIHYQMVYSYGSGVVWALGVVPFSHVNIVKFNVEDGEIVQQVRVSTPWLQHLSGACGVVDEAVLVCPDPSSRSLQTLALETEWELRQIPLQSLDLEFGSGFQPRVLPTQPNPVDASRAQFFLHLSPSHYALLQYHYGTLSLLKNFPQTALVSFATTGEKTVAAVMACRNEVQKSSSSEDGSMGSFSEKSSSKDSLACFNQTYTINLYLVETGRRLLDTTITFSLEQSGTRPERLYIQVFLKKDDSVGYRALVQTEDHLLLFLQQLAGKVVLWSREESLAEVVCLEMVDLPLTGAQAELEGEFGKKADGLLGMFLKRLSSQLILLQAWTSHLWKMFYDARKPRSQIKNEINIDTLARDEFNLQKMMVMVTASGKLFGIESSSGTILWKQYLPNVKPDSSFKLMVQRTTAHFPHPPQCTLLVKDKESGMSSLYVFNPIFGKWSQVAPPVLKRPILQSLLLPVMDQDYAKVLLLIDDEYKVTAFPATRNVLRQLHELAPSIFFYLVDAEQGRLCGYRLRKDLTTELSWELTIPPEVQRIVKVKGKRSSEHVHSQGRVMGDRSVLYKSLNPNLLAVVTESTDAHHERTFIGIFLIDGVTGRIIHSSVQKKAKGPVHIVHSENWVVYQYWNTKARRNEFTVLELYEGTEQYNATAFSSLDRPQLPQVLQQSYIFPSSISAMEATITERGITSRHLLIGLPSGAILSLPKALLDPRRPEIPTEQSREENLIPYSPDVQIHAERFINYNQTVSRMRGIYTAPSGLESTCLVVAYGLDIYQTRVYPSKQFDVLKDDYDYVLISSVLFGLVFATMITKRLAQVKLLNRAWR [EMC1]	55.1	54.8	1.42	1.57	0.0605	-0.266
MAAGGRMEDGSLDITQSIEDDPLLDAQLLPHHSLQAHFRPRFHPLPTVIIVNLLWFIHLVFVVLAFLTGVLCSYPNPNEDKCPGNYTNPLKVQTVIILGKVILWILHLLLECYIQYHHSKIRNRGYNLIYRSTRHLKRLALMIQSSGNTVLLLILCMQHSFPEPGRLYLDLILAILALELICSLICLLIYTVKIRRFNKAKPEPDILEEEKIYAYPSNITSETGFRTISSLEEIVEKQGDTIEYLKRHNALLSKRLLALTSSDLGCQPSRT [TMEM192]	55.6	55.9	0.271	-1.67	0.0852	-0.241
MAAGTAAALAFLSQESRTRAGGVGGLRVPAPVTMDSFFFGCELSGHTRSFTFKVEEEDDAEHVLALTMLCLTEGAKDECNVVEVVARNHDHQEIAVPVANLKLSCQPMLSLDDFQLQPPVTFRLKSGSGPVRITGRHQIVTMSNDVSEEESEEEEEDSDEEEVELCPILPAKKQGGRP [NPM3]	54	53	-0.577	-2.29	-0.153	0.0933
MAAHGGSAASSALKGLIQQFTTITGASESVGKHMLEACNNNLEMAVTMFLDGGGIAEEPSTSSASVSTVRPHTEEEVRAPIPQKQEILVEPEPLFGAPKRRRPARSIFDGFRDFQTETIRQEQELRNGGAIDKKLTTLADLFRPPIDLMHKGSFETAKECGQMQNKWLMINIQNVQDFACQCLNRDVWSNEAVKNIIREHFIFWQVYHDSEEGQRYIQFYKLGDFPYVSILDPRTGQKLVEWHQLDVSSFLDQVTGFLGEHGQLDGLSSSPPKKCARSESLIDASEDSQLEAAIRASLQETHFDSTQTKQDSRSDEESESELFSGSEEFISVCGSDEEEEVENLAKSRKSPHKDLGHRKEENRRPLTEPPVRTDPGTATNHQGLPAVDSEILEMPPEKADGVVEGIDVNGPKAQLMLRYPDGKREQITLPEQAKLLALVKHVQSKGYPNERFELLTNFPRRKLSHLDYDITLQEAGLCPQETVFVQERN [UBXN7]	52.8	52.8	-0.156	-0.248	0.148	-0.138
MAAHRPGPLKQQNKAHKGGRHRGRGSAQRDGKGRLALKTLSKKVRKELSRVDQRHRASQLRKQKKEAVLAEKRQLGGKDGPPHQVLVVPLHSRISLPEAMQLLQDRDTGTVHLNELGNTQNFMLLCPRLKHRWFFTSARPGDLHVVLDMAKVADTILFLLDPLEGWDSTGDYCLSCLFAQGLPTYTLAVQGISGLPLKKQIDTRKKLSKAVEKRFPHDKLLLLDTQQEAGMLLRQLANQKQQHLAFRDRRAYLFAHAVDFVPSEENNLVGTLKISGYVRGQTLNVNRLLHIVGYGDFQMKQIDAPGDPFPLNPRGIKPQKDPDMAMEICATDAVDDMEEGLKVLMKADPGRQESLQAEVIPDPMEGEQTWPTEEELSEAKDFLKESSKVVKKVPKGTSSYQAEWILDGGSQSGGEGDEYEYDDMEHEDFMEEESQDESSEEEEEYETMTIGESVHDDLYDKKVDEEAEAKMLEKYKQERLEEMFPDEVDTPRDVAARIRFQKYRGLKSFRTSPWDPKENLPQDYARIFQFQNFTNTRKSIFKEVEEKEVEGAEVGWYVTLHVSEVPVSVVECFRQGTPLIAFSLLPHEQKMSVLNMVVRRDPGNTEPVKAKEELIFHCGFRRFRASPLFSQHTAADKHKLQRFLTADMALVATVYAPITFPPASVLLFKQKSNGMHSLIATGHLMSVDPDRMVIKRVVLSGHPFKIFTKMAVVRYMFFNREDVLWFKPVELRTKWGRRGHIKEPLGTHGHMKCSFDGKLKSQDTVLMNLYKRVFPKWTYDPYVPEPVPWLKSEISSTVPQGGME [TSR1]	48.3	50.6	0.699	5.63	-0.634	0.0446
